{"source": "paper PMC2671599", "about": "“Intraflagellar Transport (IFT) Protein IFT25 Is a Phosphoprotein Component of IFT Complex B and Physically Interacts with IFT27 in Chlamydomonas” (PLoS ONE, 2009)", "key": {"GST-IFT27 [1]": {"target": "T1, GST-IFT27 (Chlamydomonas reinhardtii …, UniProt A8HN58)", "T1 chain": "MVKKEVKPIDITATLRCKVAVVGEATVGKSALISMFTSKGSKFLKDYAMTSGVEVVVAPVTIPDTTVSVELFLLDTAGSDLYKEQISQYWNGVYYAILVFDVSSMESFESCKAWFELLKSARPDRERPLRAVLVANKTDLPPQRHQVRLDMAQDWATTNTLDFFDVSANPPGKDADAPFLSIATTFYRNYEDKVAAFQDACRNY", "test": "pull-down (GST and amylose resin)"}, "GST-IFT27 [2]": {"target": "T2, GST-IFT27 (Chlamydomonas reinhardtii, UniProt A8HN58 1-204)", "T2 construct": "IFT27, Rab-like small GTPase component of IFT complex B, Chlamydomonas reinhardtii; also called GST-tagged IFT27; source: E. coli BL21 (DE3) pLysE, pGEX-2T-IFT27, purified (Glutathione Sepharose 4B, eluted with reduced glutathione)", "T2 sequence (looked up)": "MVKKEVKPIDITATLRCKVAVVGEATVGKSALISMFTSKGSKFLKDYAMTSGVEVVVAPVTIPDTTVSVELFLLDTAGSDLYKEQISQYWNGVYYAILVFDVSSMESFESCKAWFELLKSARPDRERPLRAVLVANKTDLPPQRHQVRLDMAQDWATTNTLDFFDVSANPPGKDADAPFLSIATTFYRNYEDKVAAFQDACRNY", "test": "pull-down; GST-IFT27 (~2 ug) on Glutathione Sepharose 4B beads, incubated 1 hour with MBP-IFT25 (~2 ug), MBP-IFT25 plus MBP, or MBP (2 ug); 1xHMDEK, 4 C; supernatant and pellet on SDS-PAGE, Coomassie and immunoblot", "conditions": "both partners purified"}}, "data": [{"binder": "MBP-IFT25 (natural protein, Chlamydomonas reinhardtii, UniProt B8LIX8 1-189, looked up, IFT25 (Flagellar Associated Protein FAP232) of Chlamydomonas reinhardtii; cDNA of 570 nucleotides, predicted about 20 kD; the 3' end of the FAP232 gene model was predicted incorrectly, the corrected cDNA is GenBank EF593953; Details of vector construction are 'available upon request'; also called MBP-tagged IFT25; FAP232; source: E. coli BL21 (DE3) pLysE, pMAL-c2-IFT25, purified (amylose resin, …)) MKDYAREENGGLVVMASCSDERFPPENMLDGKDNTFWVTTGMFPQEFVLRLESCIRVSKITTLSLNVRKLAVEKCDQDKPDQFEKVFEVELANRGDRLQTEVHQVNIRAKYLKFILLQGHGEFATVNRVSVVGGDDDGGGYDEPGGGYGSMQRQPSMGYGGGGGSAATGFAADPGNAAAGGGGGFEDEF", "values": [{"measurement": "binding result", "setting": "GST-IFT27 [1]", "result": "binds"}, {"measurement": "binding result", "setting": "GST-IFT27 [2]", "result": "binds"}]}]}
